The text below walks through data of patent publication US9322000B2, “Methanol dehydrogenase enzymes from Bacillus” (Sinvent AS, priority 2012, dated 2016).

Entries after “also recorded” stand apart in the source; their conditions may differ.

Data set [1] can be described thus: Methanol dehydrogenase assay of purified recombinant MDH proteins (NADH production at 340 nm). Type of data set: biochemical. On the procedure:
(§1) Alcohol dehydrogenase activities were measured spectrophotometrically essentially as described previously (Hektor, Kloosterman et al. (2002) Chem 277(49): 46966-46973) and the reaction mixture contained: 100 mM Glycine-KOH pH 9.5 (unless otherwise stated), 5 mM MgSO4, 0.5 mM NAD^+ and 500 mM alcohol (methanol, ethanol, propanol, 1,3-propanediol, or butanol). NAD^+ was substituted with equal concentrations of NADP^+, FMN^+, and FAD^+, when indicated. The reaction mixture for measurements of formaldehyde reductase activity contained: 50 mM Potassium-phosphate buffer pH=6.7, 0.15 mM NADH, 1 mM DTT and 11.6 mM (0.1-116 mM) formaldehyde. The assay components were mixed in the cuvette and pre-warmed to 45° C., unless otherwise stated. The reactions were started by addition of 5-40 μg of the purified MDH proteins, and the production of NADH was monitored at 340 nm for 4 minutes. One unit of MDH activity was defined as the amount of enzyme needed to produce 1 μmol NADH per minute under the conditions described above. Purified Act (0.1-40 μg) or NudF (20 μg) proteins were added to the reaction mixtures as indicated in the text.
(§2) The purified MDH and Act proteins (20 μg) were used in the kinetic experiments performing the methanol dehydrogenase and the formaldehyde dehydrogenase assays essentially as described above. […] For determination of the Km for NAD^+ (Km,NAD+) and Vmax, the methanol concentration was kept constant at a saturating level (500 mM), while the concentration of NAD^+ was varied (5-1000 μM). […] Act (20 μg) was added to the reaction mixtures for determination of Kμ,MεOH and Vmax values in the presence of this activator, as indicated in the text. In general, the slopes of activity versus time were linear in the measured period (data not shown). Km and Vmax values were calculated by using nonlinear regression with the Microsoft Excel solver-tool to fit the measured data to the Michaelis-Menten equation, as described previously (Jakobsen et al., (2009) Appl Environ Microbiol 75(3): 652-661). The values obtained from the regression were then compared to the values obtained from Lineweaver-Burk and Hanes-Woolf plots to ensure that the global minimum, not a local minimum, had been found.

Data set [2] can be described thus: Formaldehyde reductase assay of purified MDH proteins. Type of data set: biochemical. The following applies: 45° C., formaldehyde reductase activity. On the procedure:
as §1, §2

Data set [3] can be described thus: Substrate specificity of purified MDH proteins on alternative alcohols. Type of data set: biochemical. The following applies: all alternative alcohol substrates. The method, then: FIG. 3. Catalytic activities of purified Mdh (black), Mdh2 (dark grey) and Mdh3 (light grey) on various alcohols (200 mM) tested in vitro. (A) Substrate specificity was analysed for MDHs from B. methanolicus MGA3 in vitro. Alcohol substrates were used at concentrations of 500 mM except for pentanol (300 mM) and hexanol (50 mM). The data were calculated from the mean value from two experiments which were done in triplicate. (B) Substrate specificity for MDHs from B. methanolicus PB1 was analysed in vitro. Alcohol substrates were used at concentrations of 500 mM except for pentanol (300 mM) and hexanol (50 mM). The data were calculated from the mean value from two experiments which were done in triplicate.
Alcohol dehydrogenase activities were measured spectrophotometrically essentially as described previously (Hektor, Kloosterman et al. (2002) Chem 277(49): 46966-46973) and the reaction mixture contained: 100 mM Glycine-KOH pH 9.5 (unless otherwise stated), 5 mM MgSO4, 0.5 mM NAD^+ and 500 mM alcohol (methanol, ethanol, propanol, 1,3-propanediol, or butanol). NAD^+ was substituted with equal concentrations of NADP^+, FMN^+, and FAD^+, when indicated. […] The reactions were started by addition of 5-40 μg of the purified MDH proteins, and the production of NADH was monitored at 340 nm for 4 minutes. […]

Data set [4] in a line: Heat stability: pre-incubation of purified MDHs at 45° C. or 60° C. prior to the enzyme assay. The conditions noted are these: preincubation at 60° C.; compared to the remaining MDHs. Type of data set: biochemical. On the procedure: FIG. 5. (A) Temperature stability of MGA3 Mdh, Mdh2 and Mdh3 was tested in vitro. Enzymes were incubated at 45° C. or at 60° C. prior to the enzyme assay. (B) Temperature stability of PB1 Mdh, Mdh1 and Mdh2 was tested in vitro. Enzymes were incubated at 45° C. or at 60° C. prior to the enzyme assay.
The heat stability of the six MDHs was tested by pre-incubation of the proteins at 45° C. and 60° C. and samples were taken at different time points for enzyme assays. As expected, all enzymes retained essentially all catalytic activity upon preincubations at 45° C. (FIG. 5). […] A selection of the experiments was repeated in the presence of equal amounts of purified Act, and this had no effect on temperature stability for any of the MDHs (data not shown).

Data set [5] in a line: In vitro Mdh activity in crude cell extracts of recombinant E. coli. Type of data set: biochemical. The conditions noted are these: −Act, expressed in E. coli, crude cell extract. The source says:
(§3) The genes coding for Mdh and the Mdh activator protein Act were amplified from pET21a-plasmids harboring genes from B. methanolicus strains MGA3 (mdh-MGA3, mdh2-MGA3, mdh3-MGA3 and act-MGA3) and PB1 (mdh-PB1, mdh1-PB1 and mdh2-PB1). The genes were then cloned either into the pSEVA424 plasmid (mdh genes) or in the pSEVA131 plasmid (act gene). For cloning of mdh-MGA3, mdh-PB1, mdh1-PB1 and act-MGA3, EcoRI and HindIII restrictions sites were used, while mdh2-MGA3, mdh2-PB1 and mdh3-MGA3 were cloned by using EcoRI and PstI restriction sites. The resulting expression vectors were transformed into electrocompetent wt E. coli K-12 (BW25113) and into E. coli K-12 (BW25113) with a deleted frmA gene.
(§4) Expression Experiments For expression experiments, the cells were cultivated in either Luria-Bertani (LB) medium for in vitro assays or in M9 medium for in vivo assays both containing 20 μg/ml streptomycin for pSEVA424. When Act was co-expressed the medium was supplemented with 100 μg/ml ampicillin. Expression was induced when cells reached OD 0.5 (for in vitro tests) or OD 1 (for in vivo tests) by adding 0.1 mM IPTG (final concentration) for 6 hours. Cells were then harvested by centrifugation. For in vitro assays, crude cell extract was prepared by lysing the cells in a French press following ultracentrifugation. Alternatively, cells were resuspended in M9-medium without glucose for in vivo activity measurements. Enzyme Assays
In vitro measurements of Mdh activity: For determination of Mdh activity in crude cell extracts, the Mdh dependent formation of NADH was monitored at 340 nm. The assays were performed either at 37° C. or 45° C. in prewarmed buffer solutions. The Mdh assay contained 10-20 μg enzyme, 50 mM K2HPO4-buffer, pH7.4, 2.5 mM MgCl and 0.5 mM of NAD^+ (final concentrations). After 5 min of preincubation, the reaction was started with 1 M of methanol (final concentration).

A short description of data set [6]: In vivo Mdh activity in cell suspensions of recombinant E. coli (formaldehyde accumulating in supernatant). The conditions noted are these: 37° C., −Act; E. coli cell suspension. Type of data set: cell-based.
From the text: as §3, §4
In vivo measurements of Mdh activity: For determination of Mdh activity in cell suspensions, cells were harvested after IPTG induction, washed and resuspended in M9-medium without glucose and IPTG. OD600 was set to 1 for normalization. […] The assay was started by addition of 1 M methanol and subsequent measurement of accumulating formaldehyde in the supernatant resulting from the methanol dehydrogenase catalyzed oxidation of methanol. The calculated activities were based on the assumption that 1 l of an OD1 culture contains 0.3 g biomass of which 50% is protein.

B1: Mdh2-PB1: NAD-dependent methanol dehydrogenase encoded by chromosomal gene mdh2-PB1 of B. methanolicus PB1, SEQ ID NO. 6 (protein)
chain: MTNTQSIFYIPSVNLFGPGSVNEVGTRLAGLGVKKALLVTDAGLHGLGLSEKIASIIREAGVEVLIFPKAEPNPTDKNVAEGLEVYNAENCDSIVTLGGGSSHDAGKGIALVAANGGTIYDYEGVDKSKKPMVPLIAINTTAGTGSELTRFTIITDTERKVKMAIVDKHVTPTLSINDPELMVGMPPSLTAATGLDALTHAIEAYVSTAATPITDALAIQAIKIISKYLPRAFANGKDMEAREQMAFAQSLAGMAFNNASLGYVHAIAHQFGGFYNFPHGVCNAILLPHVCRFNLISKVERFAEIAALLGENVAGLSTREAAEKGIKAIERMAKDLNIPRGFKELGAKEEDIVTLAENAMKDATALTNPRKPKLEEVIQIIKNAM
modifications: Bacillus methanolicus PB1
Regarding B1, the “Vmax, variable substrate Methanol + Act” value in data set [1] (45° C., pH 9.5, 20 μg MDH + 20 μg Act) was 0.24 U/mg. The Km was found to be 36 mM in data set [1] (45° C., pH 9.5, 20 μg MDH + 20 μg Act, read-out: Km, variable substrate Methanol + Act) and 1.3 mM in data set [2] (read-out: Km, variable substrate Formaldehyde). Besides, the “Vmax, variable substrate Methanol” value in data set [1] (45° C., pH 9.5, absence of Act) amounted to 0.065 U/mg. Besides, the “reduction of Km,MeOH in the presence of Act” value in data set [1] (Act added vs. no Act) worked out at 4 fold. The “Vmax, variable substrate Formaldehyde” value in data set [2] is reported as 1.12 U/mg. The “catalytic activity on alternative alcohols compared with the remaining MDHs” value in data set [3] was “significantly higher catalytic activity than the remaining enzymes”. The “temperature stability in vitro (in words)” value in data set [4] is on record as “Higher Temperature Stabilities; also recorded: only moderate negative effects; also recorded: improved thermostability”. Moreover, the In vitro activity was determined as 33 mU/mg in data set [5] (37° C.) and 103 mU/mg in data set [5] (45° C.). In data set [6], the In vivo activity is recorded as 3 mU/mg.

One may read the Km as the substrate concentration at which the rate is half of its maximum.
